# Results published in IntAct's records for PubMed 17563362.
# B1: CAP-Gly domain-containing linker protein 1 (Homo sapiens), P30622-2 (parent)
# chain: MSMLKPSGLKAPTKILKPGSTALKTPTAVVAPVEKTISSEKASSTPSSETQEEFVDDFRVGERVWVNGNKPGFIQFLGETQFAPGQWAGIVLDEPIGKNDGSVAGVRYFQCEPLKGIFTRPSKLTRKVQAEDEANGLQTTPASRATSPLCTSTASMVSSSPSTPSNIPQKPSQPAAKEPSATPPISNLTKTASESISNLSEAGSIKKGERELKIGDRVLVGGTKAGVVRFLGETDFAKGEWCGVELDEPLGKNDGAVAGTRYFQCQPKYGLFAPVHKVTKIGFPSTTPAKAKANAVRRVMATTSASLKRSPSASSLSSMSSVASSVSSRPSRTGLLTETSSRYARKISGTTALQEALKEKQQHIEQLLAERDLERAEVAKATSHVGEIEQELALARDGHDQHVLELEAKMDQLRTMVEAADREKVELLNQLEEEKRKVEDLQFRVEEESITKGDLEVATVSEKSRIMELEKDLALRVQEVAELRRRLESNKPAGDVDMSLSLLQEISSLQEKLEVTRTDHQREITSLKEHFGAREETHQKEIKALYTATEKLSKENESLKSKLEHANKENSDVIALWKSKLETAIASHQQAMEELKVSFSKGLGTETAEFAELKTQIEKMRLDYQHEIENLQNQQDSERAAHAKEMEALRAKLMKVIKEKENSLEAIRSKLDKAEDQHLVEMEDTLNKLQEAEIKVKELEVLQAKCNEQTKVIDNFTSQLKATEEKLLDLDALRKASSEGKSEMKKLRQQLEAAEKQIKHLEIEKNAESSKASSITRELQGRELKLTNLQENLSEVSQVKETLEKELQILKEKFAEASEEAVSVQRSMQETVNKLHQKEEQFNMLSSDLEKLRENLADMEAKFREKDEREEQLIKAKEKLENDIAEIMKMSGDNSSQLTKMNDELRLKERDVEELQLKLTKANENASFLQKSIEDMTVKAEQSQQEAAKKHEEEKKELERKLSDLEKKMETSHNQCQELKARYERATSETKTKHEEILQNLQKTLLDTEDKLKGAREENSGLLQELEELRKQADKAKAAQTAEDAMQIMEQMTKEKTETLASLEDTKQTNAKLQNELDTLKENNLKNVEELNKSKELLTVENQKMEEFRKEIETLKQAAAQKSQQLSALQEENVKLAEELGRSRDEVTSHQKLEEERSVLNNQLLEMKKRESKFIKDADEEKASLQKSISITSALLTEKDAELEKLRNEVTVLRGENASAKSLHSVVQTLESDKVKLELKVKNLELQLKENKRQLSSSSGNTDTQADEDERAQESQIDFLNSVIVDLQRKNQDLKMKVEMMSEAALNGNGDDLNNYDSDDQEKQSKKKPRLFCDICDCFDLHDTEDCPTQAQMSEDPPHSTHHGSRGEERPYCEICEMFGHWATNCNDDETF
# Variants of: B1
# Conditions: with mare1_human MAPRE1, Q15691
# mare1_human MAPRE1, Q15691, sequence (Q15691 whole entry): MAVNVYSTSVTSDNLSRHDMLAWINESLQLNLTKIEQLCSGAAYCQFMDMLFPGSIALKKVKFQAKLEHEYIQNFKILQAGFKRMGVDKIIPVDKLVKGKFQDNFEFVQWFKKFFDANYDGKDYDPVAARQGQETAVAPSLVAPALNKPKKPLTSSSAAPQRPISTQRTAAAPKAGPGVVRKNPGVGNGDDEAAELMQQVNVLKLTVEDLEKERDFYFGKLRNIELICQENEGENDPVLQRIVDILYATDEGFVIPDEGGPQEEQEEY
row,Variant,effect of a mutation on the interaction
1,K277A,decreasing interaction strength
2,K224A,disrupting interaction strength
3,K252A,disrupting interaction strength

# Variants of: B1
# Conditions: with tba1a_human TUBA1A
row,Variant,effect of a mutation on the interaction
1,N253D,decreasing interaction strength
2,N253A,decreasing interaction strength
